Test results reported in US20210163606A1 (ATYR PHARMA, published 2021).

T1: human NRP2 variant 2 (hNRP2), untagged, on Expi293 cells (Human, UniProt O60462 23-931)
T1 construct: Transcript NM_003872 / NP_003863.2; also called Expi293-hNRP2 clonal cells; Human NRP2a (version 2)
T1 sequence: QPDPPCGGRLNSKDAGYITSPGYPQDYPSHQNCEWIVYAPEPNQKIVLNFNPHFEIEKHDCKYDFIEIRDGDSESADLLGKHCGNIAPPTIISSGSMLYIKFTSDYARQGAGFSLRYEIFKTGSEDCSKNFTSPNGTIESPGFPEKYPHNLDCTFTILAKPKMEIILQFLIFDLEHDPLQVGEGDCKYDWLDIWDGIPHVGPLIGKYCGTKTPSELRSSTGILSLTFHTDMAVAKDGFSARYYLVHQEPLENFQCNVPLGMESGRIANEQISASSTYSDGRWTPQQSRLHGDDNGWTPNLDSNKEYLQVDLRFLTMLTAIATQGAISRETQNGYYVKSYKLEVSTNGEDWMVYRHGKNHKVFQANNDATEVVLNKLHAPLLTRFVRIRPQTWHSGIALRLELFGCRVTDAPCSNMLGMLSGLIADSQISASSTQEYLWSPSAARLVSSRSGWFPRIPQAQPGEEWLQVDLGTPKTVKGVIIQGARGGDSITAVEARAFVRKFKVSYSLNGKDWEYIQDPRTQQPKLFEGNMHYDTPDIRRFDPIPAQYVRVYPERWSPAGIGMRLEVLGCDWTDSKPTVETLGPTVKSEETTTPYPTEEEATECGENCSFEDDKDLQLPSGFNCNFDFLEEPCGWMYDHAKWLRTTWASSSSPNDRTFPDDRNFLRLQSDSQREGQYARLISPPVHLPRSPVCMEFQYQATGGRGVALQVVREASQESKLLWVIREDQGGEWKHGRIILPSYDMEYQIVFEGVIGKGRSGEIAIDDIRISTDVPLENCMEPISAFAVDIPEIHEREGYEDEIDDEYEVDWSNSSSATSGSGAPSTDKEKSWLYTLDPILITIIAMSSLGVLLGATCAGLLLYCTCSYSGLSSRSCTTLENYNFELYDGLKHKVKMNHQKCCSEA


Assays:
[1] = target: T2, cynomolgus monkey NRP2 on transfected Expi293 cells (cynomolgus monkey); assay: flow cytometry on Cyno NRP2-transfected Expi293 cells
T2 construct: whole, on cells; Plasmid bought from Origene; transient transfection; also called Cyno NRP2
Description: Binding of a-NRP2 to cynomolgus monkey NRP2-transfected Expi293 cells. Cynomolgus monkey (cyno) NRP2-transfected Expi293 cells were collected by centrifugation at 300 g for 5 minutes, and washed twice by DPBS (with calcium and magnesium, ThermoFisher Cat #14040133).
Washed cells were added to a 96-well V-bottom plate (ThermoFisher Cat #1424572) at 100,000 cells/well in 50 μL of DPBS added with Zombie Violet viability stain (Biolegend Cat #423114, diluted at 1:500). From this step on, cells were protected from light. Cells were kept at room temperature for 10 min and pelleted down at 300 g for 5 minutes at 4° C. Supernatants containing Zombie Violet were discarded, and without washing, 30 uL of antibodies diluted in the flow wash buffer (FWB, DPBS plus 2% FBS and 0.1% sodium azide to inhibit receptor internalization) were added to the cells. For a-NRP2 staining on Cyno NRP2-transfected Expi293 cells, in-house human anti-NRP2 antibodies were tested at final concentrations of 0.006-100 nM at 4-fold dilutions. For each test, NRP2 over-expression on the cell surface was validated by a-NRP2 staining (10 μg/mL R&D #AF567 a-NRP2) in separate wells. Binding was allowed to proceed on ice for 40-60 minutes. Cells were then pelleted at 300 g for 5 minutes at 4° C., supernatants removed, and cells washed twice by adding 150 μL of FWB and centrifuging the cells again in the same conditions. To detect a-NRP2 binding on the cell surface, Cy3-conjugated goat anti-human IgG Fc or AF647-conjugated donkey anti-goat IgG (Jackson ImmunoResearch Cat #109165098 & 705605147) was added to the cells at a final concentration of 3 μg/mL in 30 μL of FWB. After 30-40 minutes of incubation on ice, cells were pelleted at 300 g for 5 minutes at 4° C. and supernatants removed, and the cells were washed twice as described previously. […] Cells were then analyzed on FlowJo analysis software by excluding dead cells and gating singlets.
The EC₅₀ of three anti-NRP2 antibodies, each against a distinct domain of NRP2, were measured for binding to Cyno NRP2-transfected Expi293 cells (see Table E2 and FIG. 4).

[2] = target: T1, human NRP2 variant 2 (hNRP2), untagged, …; assay: flow cytometry on Expi293-hNRP2 clonal cells
Description: Expi293-hNRP2 clonal cells were collected by centrifugation at 300 g for 5 minutes, and washed twice by DPBS (with calcium and magnesium, ThermoFisher Cat #14040133). Washed cells were added to a 96-well V-bottom plate (ThermoFisher Cat #1424572) at 100,000 cells/well in […] of DPBS added with Zombie Violet viability stain (Biolegend Cat #423114, diluted at 1:500). From this step on, cells were protected from light. Cells were kept at room temperature for 10 min and pelleted down at 300 g for 5 minutes at 4° C. Supernatants containing Zombie Violet were discarded, and without washing, 30 uL of antibodies diluted in the flow wash buffer (FWB, DPBS plus 2% FBS and 0.1% sodium azide to inhibit receptor internalization) were added to the cells. For anti-NRP2 antibody staining on Expi293-hNRP2 clonal cells, in-house human anti-NRP2 antibodies were tested at final concentrations of 0.006-100 nM at 4-fold dilutions. […] Binding was allowed to proceed on ice for 40-60 minutes. Cells were then pelleted at 300 g for 5 minutes at 4° C., supernatants removed, and cells washed twice by adding 150 μL of FWB and centrifuging the cells again in the same conditions. To detect a-NRP2 binding on the cell surface, Cy3-conjugated goat anti-human IgG Fc (Jackson ImmunoResearch Cat #109165098) was added to the cells at a final concentration of 3 μg/mL in 30 μL of FWB. After 30-40 minutes of incubation on ice, cells were pelleted at 300 g for 5 minutes at 4° C. and supernatants removed, and the cells were washed twice as described previously. Cells were then resuspended in FWB before acquisition on the Cytoflex. Gains were set based on staining controls. Cells were collected with typically more than 10,000 events. Cells were then analyzed on FlowJo analysis software by excluding dead cells and gating singlets. The statistical analysis was performed using GraphPad Prism. A four-parameter variable-slope curve was fitted to the data ([agonist] vs. response) using non-linear regression, and the EC₅₀ and r2 for each curve was determined.
The EC₅₀ of four anti-NRP2 antibodies directed against different domains of NRP2, were measured for binding to Expi293-hNRP2 clonal cells (see Table E1 and FIG. 3).

[3] = target: T3, Cynomolgus NRP2 (aa23-854) with C-terminal Fc-tag (cynomolgus monkey); assay: SPR (ProteOn XPR36), antibody captured on anti-human Fab-kappa, cyno NRP2-Fc as analyte, bivalent analyte fit
T3 construct: range 23-854; sensorgrams fitted to a bivalent analyte model; also called Cynomolgus NRP2 antigen protein
Description: Anti-NRP2 antibody binding and affinity measurements. […] SPR experiments were conducted on a Bio-Rad ProteOn XPR36 Protein Interaction Array instrument. Biotinylated anti-human antibody (ThermoFisher Cat #7103302100) was immobilized on ProteOn NLC sensor chips. Anti-NRP2 antibodies were subsequently flowed over and captured by the anti-human antibody. Cynomolgus NRP2 antigen protein was flowed over the captured antibody at varying concentrations (150, 50, 16.67, 5.56, 1.85 nM). The sensor chip surface was regenerated between each analyte run to remove anti-NRP2 antibodies and NRP2 protein. Data was double referenced against a surface with no anti-NRP2 antibody captured (immobilized anti-human antibody only) and a buffer only blank. Affinity constants were derived by globally fitting sensograms to a bivalent analyte interaction model in the ProteOn manager software. For each anti-NRP2 antibody, data from the multiple NRP2 concentrations was fit as a single data set with dissociation rate constant (kd), association rate constant (kₐ) and Rₘₐₓ values as global parameters. The reported binding affinity is the equilibrium dissociation constant (KD) calculated from kd/kₐ. [0681] Running buffer: 50 mM HEPES, 300 mM NaCl, 5 mM CaCl₂, 0.005% Tween-20, pH 7.4 [0682] Immobilized antibody: CaptureSelect Human Fab-kappa Kinetics Biotin Conjugate, Thermo Fisher Cat #7103302100 [0683] Antigen: Cynomolgus NRP2 (aa23-854) with C-terminal Fc-tag [0684] Regeneration buffer: 10 mM glycine pH 2.0

[4] = target: T1, human NRP2 variant 2 (hNRP2), untagged, …; assay: flow cytometry as described for Table E1 (Expi293-hNRP2 cells); the cells for this surrogate are not said separately

Row | Binder | EC50 [1] [nM] | EC50 [2] [nM] | Kd [3] [nM] | EC50 [4] [nM]
1 | aNRP2-11v7 (antibody, V domains shown, also called aNRP22-11v7) VH: QVQLVQSGAEVKKPGASVKVSCKASGYTFTSFGISWVRQAPGQGLEWIGEIYPRSGNTYYNENFKGRATMTADKSTSTAYMELRSLRSDDTAVYYCARSSGYYGSTPFPYWGQGTLVTVSS VL: DIQMTQSPSSLSASVGDRVTITCRASQDISNYLNWYQQKPGKAVKLLIYYTSRLHSGVPSRFSGSGSGTDYTFTISSLQPEDIATYYCQQGNTLPWTFGGGTKVEIK | 5.7 | 6.3 | 12 | 
2 | aNRP2-10v13 (antibody, V domains shown) VH: EVQLVQSGAEVKKPGATVKISCKVSGFNIKDYYVHWVQQAPGKGLEWMGRIDVHDDETKYAPKFQGRVTITADTSTDTAYMELSSLRSEDTAVYYCATPIYGAREAWFAYWGQGTLVTVSS VL: DIQMTQSPSSLSASVGDRVTITCTASSSVSSSYLHWYQQKPGKAPKLLIYRTSNLASGVPSRFSGSGSGTDFTLTISSLQPEDFATYYCHQYYRSPPTFGGGTKVEIK |  | 0.65 |  | 
3 | aNRP2-14v9 (antibody, V domains shown) VH: QLQLVESGGGVVQPGRSLRLSCTVSGFSLTSYGVHWVRQAPGKGLEWVGLIWSGGSTDYSPAFISRFTISEDNSKSTVYLQMNSLRAEDTAVYFCARNSYSSGYYAMDYWGQGTTVTVSS VL: DIQLTQSPSFLSASVGDRVTITCKASQNVGHAVAWYQQKPGKAPKLLIYSASNRYTGVPSRFSGSGSGTEFTLTISSLQPEDFATYYCQQYSRYPPYTFGGGTKVEIK | 2.8 | 1.2 | 0.017 | 

Next, values leading:

Row | EC50 [1] [nM] | EC50 [2] [nM] | Kd [3] [nM] | EC50 [4] [nM] | Binder
4 |  |  |  | 1.58 | aNRP2-28v2/4 (antibody, V domains shown, Mouse surrogate antibody; also called aNRP2-28v4) VH: QSVKESEGGLFKPTDTLTLTCTVSGFSLSTYSISWVRQAPGNGLEWIGIIGDAGGIIYATWAKSRSTITRSTALNTVTLKMTGLTAADTATYFCARDGTAFDIWGPGTLVTVSS VL: AYDMTQTPASVEVVVGGTVTIKCQASQSIYSKLGWYQQKPGQPPKLLIYRASTLASGVSSRFKGSGSGTEYTLTISGVQCDDAATYYCQQDYSYINVDNIFGGGTEVVVK
5 |  | 47.5 |  |  | aNRP2-14v10 (antibody, V domains shown) VH: QLQLVESGGGVVQPGRSLRLSCTVSGFSLTSYGVHWVRQAPGKGLEWVGLIWSGGSTDYSPAFISRFTISEDNSKSTVYLQMNSLRAEDTAVYFCARNSYSSGYYAMDYWGQGTTVTVSS VL: DIQLTQSPSFLSASVGDRVTITCKASQNVGTAVAWYQQKPGKAPKLLIYSASNRYTGVPSRFSGSGSGTEFTLTISSLQPEDFATYYCQQRSRYPPYTFGGGTKVEIK
